Test results: publication PMC4407014 (Immunology and Cell Biology, 2014)

Target: Recombinant human CD4 (crystallisation construct) (Homo sapiens, UniProt P01730)
Experiment: crystal structure

- binding result: binds
B1: Fab fragment of BT-061 (tregalizumab) (Fab, V domains shown)
VH: EEQLVESGGGLVKPGGSLRLSCAASGFSFSDCRMYWLRQAPGKGLEWIGVISVKSENYGANYAESVRGRFTISRDDSKNTVYLQMNSLKTEDTAVYYCSASYYRYDVGAWFAYWGQGTLVTVSS
VL: DIVMTQSPDSLAVSLGERATINCRASKSVSTSGYSYIYWYQQKPGQPPKLLIYLASILESGVPDRFSGSGSGTDFTLTISSLQAEDVAVYYCQHSRELPWTFGQGTKVEIK
